Results published in the supplement of paper PMC7877785.
± gives the uncertainty stated by the source.

Assay: self-splicing fitness, log relative to wild type (ln ratio); higher = more splicing; Tetrahymena group I intron in knt gene, E. coli kanamycin selection, DiMSum; sequences stand for … in CUCUCU…GGAGGGAAAAGUUAUCAGGCAUGCACCUGGUAGCUAGUCUUUAAACCAAUAGAUUGCAUCGGUUUAAAAGGCAAGACCGUCAAAUUGCGGGAAAGGGGUCAACAGCCGUUCAGUACCAAGUCUCAGGGGAAACUUUGAGAUGGCCUUGCAAAGGGUAUGGUAAUAAGCUGACGGACAUGGUCCUAACCACGCAGCCAAGUCCUAAGUCAACAGAUCUUCUGUUGAUAUGGAUGCAGUUCACAGACUAAAUGUCGGUCGGGGAAGAUGUAUUCUUCUCAUAAGAUAUAGUCGGACCUCUCCUUAAUGGGAGCUAGCGGAUGAAGUGAUGCAACACUGGAGCCGCUGGGAACUAAUUUGUAUGCGAAAGUAUAUUGAUUAGUUUUGGAGUACUCGUGGUCG
In short: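 The eight P1ex-region nucleotides of an intron in the knt kanamycin-resistance gene on pET-22b(+) were all randomised and the library put into E. coli BL21(DE3). Six replicate transformations were grown overnight at 37°C or 30°C on LB agar with or without 25 μg/mL kanamycin, together with 100 μg/mL carbenicillin, 50 μM IPTG and 0.2% rhamnose. Colonies were pooled and amplicon-sequenced on an Illumina HiSeq 2500. Fitness from DiMSum is the error-weighted combination of wild-type-normalised replicate fold changes, kanamycin over none.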

Sequence | self-splicing fitness (ln) (30 °C) | self-splicing fitness (ln) (37 °C)
CACAAGCAAUAUUACGUGGU | -4.1 ± 0.17 | -2.66 ± 0.19
CACAAGCAAUAUUACGUUCG | -0.461 ± 0.048 | 0.012 ± 0.06
CACAAGCAAUAUUACGUUGC | -3.28 ± 0.1 | -2.66 ± 0.13
CACCAGCAAUAUUACGAACA | -3.14 ± 0.17 | -0.953 ± 0.14
CACCAGCAAUAUUACGACAA | -2.61 ± 0.23 | -2.73 ± 0.2
CACCAGCAAUAUUACGACUU | -3.4 ± 0.14 | -2.69 ± 0.13
CACCAGCAAUAUUACGAGCC | -3.37 ± 0.27 | -2.92 ± 0.32
CACCAGCAAUAUUACGAGUA | -1.04 ± 0.06 | -0.515 ± 0.066
CACCAGCAAUAUUACGAUAG | -0.377 ± 0.057 | 0.0494 ± 0.064
CACCAGCAAUAUUACGAUGU | -3.07 ± 0.12 | -0.91 ± 0.085
CACCAGCAAUAUUACGCACG | -0.655 ± 0.045 | 0.0962 ± 0.062
CACCAGCAAUAUUACGCCAC | -3.58 ± 0.16 | -2.42 ± 0.17
CACCAGCAAUAUUACGCCUA | -2.37 ± 0.16 | -1.52 ± 0.17
CACCAGCAAUAUUACGCUCA | -1.42 ± 0.12 | -1.13 ± 0.17
CACCAGCAAUAUUACGGAAA | -1.63 ± 0.1 | -2.03 ± 0.14
CACCAGCAAUAUUACGGACA | -2.01 ± 0.1 | -0.603 ± 0.086
CACCAGCAAUAUUACGGCCU | -2.6 ± 0.16 | -1.93 ± 0.16
CACCAGCAAUAUUACGGCUC | -1.44 ± 0.075 | -0.828 ± 0.087
CACCAGCAAUAUUACGGGAG | -2.61 ± 0.067 | -1.26 ± 0.076
CACCAGCAAUAUUACGGGCA | -1.29 ± 0.069 | -0.343 ± 0.081
CACCAGCAAUAUUACGGGUA | -0.28 ± 0.045 | -0.404 ± 0.055
CACCAGCAAUAUUACGGGUC | -2.54 ± 0.07 | -2.17 ± 0.092
CACCAGCAAUAUUACGGUGU | -3.39 ± 0.11 | -1.82 ± 0.12
CACCAGCAAUAUUACGUAAC | -2.87 ± 0.13 | -0.914 ± 0.14
CACCAGCAAUAUUACGUGAC | -4.86 ± 0.26 | -2.34 ± 0.21
CACCAGCAAUAUUACGUGUG | -4.45 ± 0.17 | -3.63 ± 0.19

Sequence | self-splicing fitness (ln) (30 °C) | self-splicing fitness (ln) (37 °C)
CACCAGCAAUAUUACGUUAC | -4.48 ± 0.26 | -2.45 ± 0.18
CACGAGCAAUAUUACGAGCG | -0.857 ± 0.086 | -1.33 ± 0.1
CACGAGCAAUAUUACGAGGG | -3.64 ± 0.25 | -3.25 ± 0.33
CACGAGCAAUAUUACGAUAC | -3.07 ± 0.24 | -2.73 ± 0.36
CACGAGCAAUAUUACGAUGU | -3.52 ± 0.18 | -3.49 ± 0.24
CACGAGCAAUAUUACGAUUA | -3.34 ± 0.31 | -2.12 ± 0.25
CACGAGCAAUAUUACGAUUG | -2.19 ± 0.11 | -1.6 ± 0.13
CACGAGCAAUAUUACGAUUU | -3.18 ± 0.18 | -1.99 ± 0.13
CACGAGCAAUAUUACGCAUA | -3.1 ± 0.15 | -2.61 ± 0.18
CACGAGCAAUAUUACGCGGU | -3.13 ± 0.15 | -3.5 ± 0.24
CACGAGCAAUAUUACGCUUA | -2.83 ± 0.32 | -0.611 ± 0.12
CACGAGCAAUAUUACGGCCC | -3.09 ± 0.28 | -2.95 ± 0.36
CACGAGCAAUAUUACGGCCG | -0.354 ± 0.094 | -0.105 ± 0.13
CACGAGCAAUAUUACGGCGA | -3.28 ± 0.19 | -2.69 ± 0.26
CACGAGCAAUAUUACGGCUG | -1.39 ± 0.089 | -0.237 ± 0.11
CACGAGCAAUAUUACGGGAC | -3.36 ± 0.2 | -2.55 ± 0.23
CACGAGCAAUAUUACGGGUU | -3.2 ± 0.16 | -2.81 ± 0.22
CACGAGCAAUAUUACGUAGG | – | -1.83 ± 0.21
CACGAGCAAUAUUACGUCGA | -2.23 ± 0.35 | -2.81 ± 0.26
CACGAGCAAUAUUACGUGAU | -3.91 ± 0.14 | -2.05 ± 0.14
CACUAGCAAUAUUACGAAGC | – | -2.83 ± 0.35
CACUAGCAAUAUUACGACAG | -0.114 ± 0.076 | 0.0358 ± 0.079
CACUAGCAAUAUUACGAGGG | -3.29 ± 0.18 | -1.34 ± 0.15
CACUAGCAAUAUUACGCAAC | – | -2.5 ± 0.29
CACUAGCAAUAUUACGCAGG | -3.27 ± 0.12 | -1.26 ± 0.15
CACUAGCAAUAUUACGCGCU | -3.62 ± 0.16 | -2.09 ± 0.14

Sequence | self-splicing fitness (ln) (30 °C) | self-splicing fitness (ln) (37 °C)
CACUAGCAAUAUUACGCGGC | -3.47 ± 0.28 | -2.97 ± 0.25
CACUAGCAAUAUUACGGCUG | -0.972 ± 0.054 | 0.114 ± 0.065
CACUAGCAAUAUUACGGGCG | -0.464 ± 0.087 | -0.0972 ± 0.084
CACUAGCAAUAUUACGGGUC | -2.36 ± 0.14 | -2.27 ± 0.2
CACUAGCAAUAUUACGGUCU | -1.55 ± 0.078 | -0.782 ± 0.11
CACUAGCAAUAUUACGUAAA | -3.48 ± 0.18 | -2.61 ± 0.2
CACUAGCAAUAUUACGUAAC | -3.68 ± 0.27 | -1.88 ± 0.24
CACUAGCAAUAUUACGUAUA | -3.17 ± 0.36 | -1.5 ± 0.23
CACUAGCAAUAUUACGUGCU | -3.69 ± 0.2 | -2.55 ± 0.15
CACUAGCAAUAUUACGUUUA | -4.15 ± 0.23 | -2.68 ± 0.17
CAGAAGCAAUAUUACGAAAC | -4.4 ± 0.46 | -2.18 ± 0.32
CAGAAGCAAUAUUACGAAUG | -2.6 ± 0.14 | -0.683 ± 0.13
CAGAAGCAAUAUUACGACAA | -2.84 ± 0.36 | -1.88 ± 0.31
CAGAAGCAAUAUUACGACCU | -2.86 ± 0.4 | 0.0264 ± 0.23
CAGAAGCAAUAUUACGCAGU | -2.53 ± 0.19 | -3.48 ± 0.23
CAGAAGCAAUAUUACGCCCU | – | -1.83 ± 0.43
CAGAAGCAAUAUUACGCCUC | – | -0.543 ± 0.28
CAGAAGCAAUAUUACGCUUC | – | -3.54 ± 0.4
CAGAAGCAAUAUUACGGAAA | – | -2.45 ± 0.36
CAGAAGCAAUAUUACGGACA | -1.93 ± 0.16 | -0.876 ± 0.13
CAGAAGCAAUAUUACGGCAC | -3.44 ± 0.41 | -1.87 ± 0.32
CAGAAGCAAUAUUACGGCCC | -2.98 ± 0.44 | –
CAGAAGCAAUAUUACGGCUA | 0.172 ± 0.11 | -0.0647 ± 0.084
CAGAAGCAAUAUUACGGCUU | -3.46 ± 0.21 | -3.66 ± 0.29
CAGAAGCAAUAUUACGGGGC | -3.13 ± 0.17 | -2.89 ± 0.27
